Measured values as given in patent US20250277044A1 (BEIJING HANMI PHARMACEUTICAL, published 2025).
Each block holds one binder with its values, some of them ahead of it.

Columns and labels:
[1] = molecular target: T1, recombinant human 4-1BB (Sino Biological Inc., catalog number 10041-H08H) (human, UniProt Q07011 24-186); experiment: ELISA, coated recombinant human 4-1BB, steps of Example 4
T1 construct: Bought protein coated on ELISA plates; treated as the same molecule; also called recombinant human 4-1BB-His protein; CD137

recombinant human LAG-3 = molecular target: T2, recombinant human LAG-3 (human, UniProt P18627 23-450); experiment: ELISA, coated antigen 1 µg/mL
T2 sequence (looked up): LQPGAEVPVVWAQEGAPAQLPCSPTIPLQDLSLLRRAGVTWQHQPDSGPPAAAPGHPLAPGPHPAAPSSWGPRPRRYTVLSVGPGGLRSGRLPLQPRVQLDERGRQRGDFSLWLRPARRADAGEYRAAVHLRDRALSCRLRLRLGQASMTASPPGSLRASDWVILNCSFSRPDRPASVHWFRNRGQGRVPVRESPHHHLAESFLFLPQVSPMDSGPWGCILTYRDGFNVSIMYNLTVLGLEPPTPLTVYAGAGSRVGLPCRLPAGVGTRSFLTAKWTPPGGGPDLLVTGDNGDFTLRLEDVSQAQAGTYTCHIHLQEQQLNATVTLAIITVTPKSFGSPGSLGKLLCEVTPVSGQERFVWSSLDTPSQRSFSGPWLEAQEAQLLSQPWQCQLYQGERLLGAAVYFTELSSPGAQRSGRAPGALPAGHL

recombinant human CD27 = recombinant human CD27 (human, UniProt P26842 20-192); experiment: ELISA, coated antigen 1 µg/mL
recombinant human PDI = molecular target: T3, recombinant human PDI (human, UniProt Q15116 25-167); experiment: ELISA, coated antigen 1 µg/mL
T3 construct: also called PD1 (printed 'PDI'); CD28 family member

recombinant human TIM-3 = recombinant human TIM-3 (human, UniProt Q8TDQ0 22-200); experiment: ELISA, coated antigen 1 µg/mL
recombinant human B7-H2 = molecular target: T4, recombinant human B7-H2 (human, UniProt O75144 19-256, limits assumed); experiment: ELISA, coated antigen 1 µg/mL
T4 construct: also called B7 family member
T4 sequence (looked up): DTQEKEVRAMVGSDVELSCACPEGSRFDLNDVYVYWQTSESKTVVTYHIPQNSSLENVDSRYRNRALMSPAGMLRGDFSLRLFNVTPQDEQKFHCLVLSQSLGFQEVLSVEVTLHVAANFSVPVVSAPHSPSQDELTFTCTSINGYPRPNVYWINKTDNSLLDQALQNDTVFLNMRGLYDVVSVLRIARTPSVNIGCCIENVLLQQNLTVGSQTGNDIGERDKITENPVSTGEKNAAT

recombinant human BTLA = molecular target: T5, recombinant human BTLA (human, UniProt Q7Z6A9 31-157, limits assumed); experiment: ELISA, coated antigen 1 µg/mL
T5 construct: also called CD28 family member

recombinant human CTLA4 = recombinant human CTLA4 (human, UniProt P16410 36-162); experiment: ELISA, coated antigen 1 µg/mL
recombinant mouse 4-1BB = molecular target: T6, recombinant mouse 4-1BB (mouse, UniProt P20334 24-187); experiment: ELISA, coated antigen 1 µg/mL
T6 construct: Bought protein, coated on ELISA plate
T6 sequence (looked up): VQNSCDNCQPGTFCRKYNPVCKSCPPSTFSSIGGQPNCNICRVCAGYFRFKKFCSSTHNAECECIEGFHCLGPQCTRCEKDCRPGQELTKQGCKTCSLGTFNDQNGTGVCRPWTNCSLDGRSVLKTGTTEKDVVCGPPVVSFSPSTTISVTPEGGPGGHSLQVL

recombinant human CD80 = molecular target: T7, recombinant human CD80 (human, UniProt P33681 35-242); experiment: ELISA, coated antigen 1 µg/mL
T7 construct: also called B7 family member
T7 sequence (looked up): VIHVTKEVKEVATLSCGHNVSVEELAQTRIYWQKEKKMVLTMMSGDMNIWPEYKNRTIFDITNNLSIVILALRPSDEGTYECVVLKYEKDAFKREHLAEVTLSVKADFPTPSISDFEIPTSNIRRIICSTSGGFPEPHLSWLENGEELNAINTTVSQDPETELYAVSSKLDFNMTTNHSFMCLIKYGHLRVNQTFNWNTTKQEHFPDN

recombinant human CD86 = molecular target: T8, recombinant human CD86 (human, UniProt P42081 24-245, limits assumed); experiment: ELISA, coated antigen 1 µg/mL
T8 construct: also called B7 family member
T8 sequence (looked up): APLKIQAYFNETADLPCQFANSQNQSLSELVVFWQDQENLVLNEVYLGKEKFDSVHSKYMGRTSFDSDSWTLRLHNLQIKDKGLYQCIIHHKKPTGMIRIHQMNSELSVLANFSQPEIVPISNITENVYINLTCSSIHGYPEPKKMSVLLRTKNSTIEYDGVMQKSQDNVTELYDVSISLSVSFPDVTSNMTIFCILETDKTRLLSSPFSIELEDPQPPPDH

recombinant human PD-L2 = molecular target: T9, recombinant human PD-L2 (human, UniProt Q9BQ51 20-220); experiment: ELISA, coated antigen 1 µg/mL
T9 construct: also called B7 family member
T9 sequence (looked up): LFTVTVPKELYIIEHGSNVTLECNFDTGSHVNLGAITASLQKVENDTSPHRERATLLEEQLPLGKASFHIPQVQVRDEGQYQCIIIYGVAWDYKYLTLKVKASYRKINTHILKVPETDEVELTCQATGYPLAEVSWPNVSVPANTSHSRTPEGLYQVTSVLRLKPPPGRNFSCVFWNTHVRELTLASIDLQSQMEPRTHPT

recombinant human ICOS = molecular target: T10, recombinant human ICOS (human, UniProt Q9Y6W8 21-141); experiment: ELISA, coated antigen 1 µg/mL
T10 construct: also called CD28 family member
T10 sequence (looked up): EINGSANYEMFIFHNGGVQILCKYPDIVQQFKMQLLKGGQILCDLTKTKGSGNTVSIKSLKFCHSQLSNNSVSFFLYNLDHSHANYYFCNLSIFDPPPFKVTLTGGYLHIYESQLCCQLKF

recombinant human CD28 = molecular target: T11, recombinant human CD28 (human, UniProt P10747 19-152); experiment: ELISA, coated antigen 1 µg/mL
T11 construct: also called CD28 family member

recombinant human OX40 = molecular target: T12, recombinant human OX40 (human, UniProt P43489 29-216); experiment: ELISA, coated antigen 1 µg/mL
T12 sequence (looked up): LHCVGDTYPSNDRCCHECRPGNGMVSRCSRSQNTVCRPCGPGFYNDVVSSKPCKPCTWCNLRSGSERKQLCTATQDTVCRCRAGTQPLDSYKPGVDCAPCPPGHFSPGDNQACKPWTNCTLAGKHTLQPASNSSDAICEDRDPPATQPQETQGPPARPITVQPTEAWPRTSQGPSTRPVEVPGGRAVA

T3 sequence (Q15116 25-167 limits assumed): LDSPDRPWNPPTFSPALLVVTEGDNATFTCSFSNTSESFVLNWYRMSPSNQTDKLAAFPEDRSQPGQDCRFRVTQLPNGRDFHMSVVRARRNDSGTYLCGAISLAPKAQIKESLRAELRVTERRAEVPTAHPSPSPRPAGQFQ
recombinant human CTLA4, sequence (P16410 36-162 limits assumed): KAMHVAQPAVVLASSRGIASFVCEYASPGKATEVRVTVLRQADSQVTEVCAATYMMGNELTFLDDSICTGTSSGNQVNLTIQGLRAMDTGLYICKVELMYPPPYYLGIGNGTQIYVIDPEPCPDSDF
recombinant human CD27, sequence (P26842 20-192 limits assumed): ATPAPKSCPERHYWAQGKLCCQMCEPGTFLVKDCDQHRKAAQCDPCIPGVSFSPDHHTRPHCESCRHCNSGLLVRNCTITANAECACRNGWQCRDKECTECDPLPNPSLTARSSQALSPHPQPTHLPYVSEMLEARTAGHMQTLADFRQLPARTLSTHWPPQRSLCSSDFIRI
T1 sequence (Q07011 24-186 limits assumed): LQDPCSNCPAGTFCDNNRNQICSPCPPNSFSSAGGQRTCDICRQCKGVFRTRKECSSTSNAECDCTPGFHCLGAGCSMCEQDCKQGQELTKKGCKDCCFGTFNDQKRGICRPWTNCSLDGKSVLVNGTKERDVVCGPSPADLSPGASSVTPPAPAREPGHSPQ

binding result [1]: binds
B1: humanized anti-human 4-1BB monoclonal antibody BH3145b (antibody, human IgG4 S228P, kappa, V domains shown)
VH: QVQLVQSGAEVKKPGSSVKVSCKASGYTFTSYWINWVRQAPGQGLEWMGNIYPSDSYTNYNQKFKDRVTITADKSTSTAYMELSSLRSEDTAVYYCARLYYGSSPFDYWGQGTTVTVSS
VL: DIQMTQSPSSLSASVGDRVTITCRASQDISNYLNWYQQKPGKVPKLLIYHTSRLHSGVPSRFSGSGSGTDFTLTISSLQPEDVATYYCQQGHTLPRTFGGGTKVEIKR
notes: also called z0

binding result (recombinant human LAG-3): no binding
binding result (recombinant human CD27): no binding
binding result (recombinant human PDI): no binding
binding result (recombinant human TIM-3): no binding
binding result (recombinant human B7-H2): no binding
binding result (recombinant human BTLA): no binding
binding result (recombinant human CTLA4): no binding
binding result (recombinant mouse 4-1BB): no binding
binding result (recombinant human CD80): no binding
binding result (recombinant human CD86): no binding
binding result (recombinant human PD-L2): no binding
binding result (recombinant human ICOS): no binding
binding result (recombinant human CD28): no binding
binding result (recombinant human OX40): no binding
B2: chimeric anti-human 4-1BB monoclonal antibody mAb-33-83 (antibody, human IgG4 S228P, kappa, V domains shown)
VH: QVQLQQPGAELVRPGASMKLSCKASGYTFTSYWINWVKQRPGQGLEWIGNIYPSDSYTNYNQKFKDKATLTVDKSSSTAYMQLSSPTSEDSAVYYCTRLYYGSSPFDYWGQGTTLTVSS
VL: DIQMTQTTSSLSASLGDRVTISCRASQDISNYLNWYQQKPDGTVKLLIYHTSRLHSGVPPRFSGSGSGTNYSLTISNLEQEDIATYFCQQGHTLPRTFGGGTKLEIKR
notes: expressed in ExpiCHO cells; also called Chimeric mAbs
